The text below walks through data of article PMC4475061.

For assay [1], the target named is other ESCRT-III proteins. Briefly: fluorescence polarisation; data not shown; other ESCRT-III proteins.
The target of assay [2] is T1, ULK3 fused to the VP16 activation domain, Q6PHR2.
T1 chain: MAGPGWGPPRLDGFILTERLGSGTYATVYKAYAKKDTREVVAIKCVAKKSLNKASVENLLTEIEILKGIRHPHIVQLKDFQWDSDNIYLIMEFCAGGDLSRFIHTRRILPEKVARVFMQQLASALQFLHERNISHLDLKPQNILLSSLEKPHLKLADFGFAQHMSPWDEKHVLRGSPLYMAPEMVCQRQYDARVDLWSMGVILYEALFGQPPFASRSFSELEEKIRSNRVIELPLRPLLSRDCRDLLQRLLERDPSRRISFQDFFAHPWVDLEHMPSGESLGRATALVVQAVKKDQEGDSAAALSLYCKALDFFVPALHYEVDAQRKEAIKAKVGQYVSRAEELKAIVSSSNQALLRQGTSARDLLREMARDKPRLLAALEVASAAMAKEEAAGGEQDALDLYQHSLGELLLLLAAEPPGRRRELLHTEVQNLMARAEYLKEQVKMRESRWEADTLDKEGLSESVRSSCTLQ
Briefly: yeast two-hybrid (β-galactosidase activity). To be noted: chain shown with the change;; parent: est. 0.66; read off a plot.

B1: ULK3(MIT)2 (residues 277–449) (domain or fragment)
chain: GPHMSGESLGRATALVVQAVKKDQEGDSAAALSLYCKALDFFVPALHYEVDAQRKEAIKAKVGQYVSRAEELKAIVSSSNQALLRQGTSARDLLREMARDKPRLLAALEVASAAMAKEEAAGGEQDALDLYQHSLGELLLLLAAEPPGRRRELLHTEVQNLMARAEYLKEQVKMRES
As a reminder, the Kd is the constant that tells how readily two partners part at equilibrium. A low value points to a tighter complex. In the case of B1, in assay [1], the Kd was determined as 100 µM.

B2: CHMP1B WT fused to the Gal4 DNA-binding domain, Q7LBR1 T178R; A181R; E184R (protein)
chain: MSNMEKHLFNLKFAAKELSRSAKKCDKEEKAEKAKIKKAIQKGNMEVARIHAENAIRQKNQAVNFLRMSARVDAVAARVQTAVTMGKVTKSMAGVVKSMDATLKTMNLEKISALMDKFEHQFETLDVQTQQMEDTMSSTTTLTTPQNQVDMLLQEMADEAGLDLNMELPQGQTGSVGRSVRSARQDELSQRLARLRDQV
In the case of B2, the response in assay [2] amounted to 0.5.
